Assay results as given in patent US20220289833A1 (BIOSION, published 2022).
Where two headings read alike, the source gives them in different places.

T1: Recombinant cynomolgus monkey TSLP-his (cynomolgus monkey)
T1 construct: Prepared in-house; Amine-coupled to CM5 chip in SPR, coated on plates in the indirect ELISA; also called cynomolgus TSLP; cynomolgus TSLP-his protein
T1 chain: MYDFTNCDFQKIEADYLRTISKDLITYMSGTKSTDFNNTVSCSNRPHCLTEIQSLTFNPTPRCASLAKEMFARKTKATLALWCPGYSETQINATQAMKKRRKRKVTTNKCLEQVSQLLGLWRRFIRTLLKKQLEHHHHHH


What was measured:
[1] = target: T2, Recombinant human TSLP-his (human, UniProt Q969D9 29-159); assay: SPR, BIAcore; protocol of Example 2
T2 construct: Prepared in-house; Amine-coupled to CM5 chip in SPR, loaded on APS sensors in Octet, biotin-labeled in the capture ELISA, unlabeled in the cell functional assays; also called human TSLP-his protein

[2] = target: T1, Recombinant cynomolgus monkey TSLP-his; assay: SPR, BIAcore; protocol of Example 2
[3] = target: T1, Recombinant cynomolgus monkey TSLP-his; assay: indirect ELISA on coated cynomolgus TSLP-his
[4] = target: T1, Recombinant cynomolgus monkey TSLP-his; assay: indirect ELISA on coated cynomolgus TSLP-his
[5] = target: T2, Recombinant human TSLP-his; assay: BLI, Octet; TSLP-his loaded on APS biosensor, antibody in solution; 1:1 Langmuir fit
[6] = target: T2, Recombinant human TSLP-his; assay: SPR, Biacore T200; TSLP-his amine-coupled to CM5 chip, antibody as analyte; 1:1 Langmuir fit
[7] = target: T3, human TSLP-Fc (human, biotin-labeled); assay: competitive ELISA: antibody pre-mixed with biotin-labeled human TSLP-Fc; blocked binding to coated Tezepelumab
T3 construct: Prepared in-house; also called biotin-labeled human TSLP-Fc; TSLP-Fc-biotin

[8] = target: T3, human TSLP-Fc; assay: as above; remark: listed apart in the source
[9] = target: T3, human TSLP-Fc; assay: as above; remark: listed apart in the source
[10] = target: T2, Recombinant human TSLP-his; assay: capture ELISA: antibody captured on anti-IgG Fc coat, biotin-labeled human TSLP-his detected with streptavidin-HRP
[11] = target: T2, Recombinant human TSLP-his; assay: as above; remark: listed apart in the source
[12] = target: T2, Recombinant human TSLP-his; assay: as above; remark: listed apart in the source
[13] = target: T2, Recombinant human TSLP-his; assay: as above; remark: listed apart in the source
[14] = target: T3, human TSLP-Fc; assay: competitive ELISA: antibody pre-mixed with biotin-labeled human TSLP-Fc; blocked binding to coated human TSLPR-Fc/IL7Ra-Fc
[15] = target: T3, human TSLP-Fc; assay: as above; remark: listed apart in the source
[16] = target: T3, human TSLP-Fc; assay: as above; remark: listed apart in the source
[17] = target: T3, human TSLP-Fc; assay: cell-based ligand-blocking FACS: antibody pre-mixed with human TSLP-Fc; blocked binding to BAF3-3E6 cells expressing human TSLPR and IL7R
[18] = target: T3, human TSLP-Fc; assay: as above; remark: listed apart in the source
[19] = target: T3, human TSLP-Fc; assay: as above; remark: listed apart in the source
[20] = target: T3, human TSLP-Fc; assay: as above; remark: listed apart in the source
[21] = target: T1, Recombinant cynomolgus monkey TSLP-his; assay: indirect ELISA on coated cynomolgus TSLP-his; the row head of the drawn table reads IC50 although the curve rises (EC50 values were reported)
[22] = target: T2, Recombinant human TSLP-his; assay: SPR, Biacore T200; protocol of Example 2
[23] = target: T1, Recombinant cynomolgus monkey TSLP-his; assay: SPR, Biacore T200; cynomolgus TSLP-his amine-coupled to CM5 chip, antibody as analyte
[24] = target: T3, human TSLP-Fc; assay: cell-based ligand-blocking FACS: antibody pre-mixed with human TSLP-Fc; blocked binding to BAF3-3E6 cells expressing human TSLPR and IL7R; lower plateau at MFI about 550 (partial blocking)
[25] = target: T1, Recombinant cynomolgus monkey TSLP-his; assay: SPR, Biacore T200; cynomolgus TSLP-his amine-coupled to CM5 chip, antibody as analyte; 1:1 Langmuir fit
[26] = target: T3, human TSLP-Fc; assay: competitive ELISA: antibody pre-mixed with biotin-labeled human TSLP-Fc; blocked binding to coated Tezepelumab; remark: listed apart in the source
[27] = target: T3, human TSLP-Fc; assay: competitive ELISA: antibody pre-mixed with biotin-labeled human TSLP-Fc; blocked binding to coated human TSLPR-Fc/IL7Ra-Fc; remark: listed apart in the source

| Binder | Kd [1] | koff [1] | kon [1] | Kd [2] | koff [2] | kon [2] | EC50 [3] | EC50 [4] | Kd [5] | Kd [6] | koff [6] | kon [6] | IC50 [8] | IC50 [9] | EC50 [12] | IC50 [15] | IC50 [16] | IC50 [17] | IC50 [19] | IC50 [20] | other results |
| --- | --- | --- | --- | --- | --- | --- | --- | --- | --- | --- | --- | --- | --- | --- | --- | --- | --- | --- | --- | --- | --- |
| mouse 1C5F12E9 (antibody, V domains shown, also called mouse anti-TSLP 1C5F12E9 antibody) VH: QVQLQQPGTELVKPGASVKMSCKASGYTFTTYWMHWVKQRPGQGLEWIGVIDPSDSDTTYNQKFKGKATLTVDTSSSTAYMQLSSLTSEDSAVYYCTRSLDGYYDYWGQGTTLTVSS VL: DIQMTQSPASLSASVGETVTITCRPTENIYSYLAWYQQKQGKSPHLLVYFARTLAEGVPSRFSGSGSGTQFSLKINSLQPEDFGIYYCQHHYGTPWTFGGGTKLEIK | < 0.0966 nM | < 1e-05 s⁻¹ | 104000 M⁻¹ s⁻¹ | < 0.0346 nM | < 1e-05 s⁻¹ | 289000 M⁻¹ s⁻¹ | 0.101 nM | 0.202 nM | 0.226 nM | < 0.11 nM | < 1e-05 s⁻¹ | 91100 M⁻¹ s⁻¹ | 0.262 nM | 0.366 nM | 0.146 nM | 0.391 nM | 0.139 nM | 0.514 nM | 1.63 nM | 2.41 nM | koff [5]: 0.000135 s⁻¹; kon [5]: 600000 M⁻¹ s⁻¹; IC50 [7]: 0.15 nM; EC50 [10]: 0.36 nM; EC50 [11]: 0.16 nM; EC50 [13]: 0.151 nM; IC50 [14]: 0.694 nM; IC50 [18]: 0.625 nM; EC50 [21]: 0.407 nM |
| Chimeric 1C5F12E9 (antibody, human IgG1, kappa, V domains shown, Human IgG1/kappa chimera expressed in 293F cells; also called chimeric 1C5F12E9 antibody) VH: QVQLQQPGTELVKPGASVKMSCKASGYTFTTYWMHWVKQRPGQGLEWIGVIDPSDSDTTYNQKFKGKATLTVDTSSSTAYMQLSSLTSEDSAVYYCTRSLDGYYDYWGQGTTLTVSS VL: DIQMTQSPASLSASVGETVTITCRPTENIYSYLAWYQQKQGKSPHLLVYFARTLAEGVPSRFSGSGSGTQFSLKINSLQPEDFGIYYCQHHYGTPWTFGGGTKLEIKR | < 0.0517 nM | < 1e-05 s⁻¹ | 193000 M⁻¹ s⁻¹ | < 0.0261 nM | < 1e-05 s⁻¹ | 383000 M⁻¹ s⁻¹ |  | 0.0918 nM | 0.222 nM |  |  |  |  | 0.291 nM |  |  | 0.1 nM | 0.627 nM |  | ~3.12 nM | Kd [22]: 0.914 nM; koff [22]: 6.36e-05 s⁻¹; kon [22]: 69600 M⁻¹ s⁻¹; koff [5]: 0.000159 s⁻¹; kon [5]: 715000 M⁻¹ s⁻¹; EC50 [10]: 0.448 nM; EC50 [13]: 0.161 nM |
| Mouse D1C2H1H1 (antibody, V domains shown, Mouse hybridoma mAb) VH: QVTLKESGPGILQPSQTLSLTCSFSGFSLSTYGMGIGWIRLPSGKGLEWLASIWWDDNRYFNAALKSRLTISKDASKNQVFLKIASVDTADTATYYCARIEDGYYSYHSYWGQGTLVTVSA VL: DIVLTQSPASLAVSLGQRATISCKASQSVDFDGDSYMNWFQQKPGQPPKLLIYAASNLVSGIPARFSGSGSGTDFTLNIHPVEEEDAATYYCQQIDEDPYTFGGGTKLEIE |  |  |  |  |  |  | 4.18 nM |  |  | < 0.0149 nM | < 1e-05 s⁻¹ | 672000 M⁻¹ s⁻¹ | 0.12 nM |  | 0.17 nM | 0.114 nM |  |  | 2.14 nM |  | Kd [23]: 7.23 nM |
| Mouse D1D8H9F7 (antibody, V domains shown, Mouse hybridoma mAb) VH: QVQLQQSGADLVRPGSSVKISCKTSGFAFSSYYMNWVKQRPGQGLEWIGQIYPGDGETNYNGKFKDKATLTADKSSSTVYMQLSSLTSEDSAVYFCARAGYSDYVYAMDYWGQGTSVTVSS VL: EIVLTQSPALMAASPGEKVTIICSVSSSITSSNLHWYQQKSETSPKPWIYGTSNLASGVPVRFSGSGSGTSYSLTISSMEAEDAATYYCQQWSSFPLTFGSGTKLEIK |  |  |  |  |  |  |  |  |  | 0.18 nM | 3.09e-05 s⁻¹ | 172000 M⁻¹ s⁻¹ |  |  | 0.126 nM | 0.5 nM |  |  |  |  | binding result [3]: no binding (tested: about 67 nM); IC50 [24]: 1.83 nM |
| Tezepelumab (antibody, human IgG2, lambda, V domains shown, also called TSLP-BM; benchmark) VH: QMQLVESGGGVVQPGRSLRLSCAASGFTFRTYGMHWVRQAPGKGLEWVAVIWYDGSNKHYADSVKGRFTITRDNSKNTLNLQMNSLRAEDTAVYYCARAPQWELVHEAFDIWGQGTMVTVSS VL: SYVLTQPPSVSVAPGQTARITCGGNNLGSKSVHWYQQKPGQAPVLVVYDDSDRPSWIPERFSGSNSGNTATLTISRGEAGDEADYYCQVWDSSSDHVVFGGGTKLTVLG |  |  |  | 0.0672 nM |  |  | 0.127 nM | 0.105 nM |  |  |  |  | 0.495 nM | 0.486 nM |  | 0.506 nM | 0.0777 nM | 0.728 nM | 1.48 nM | 1.45 nM | Kd [25]: 0.0733 nM; IC50 [7]: 0.18 nM; IC50 [26]: 5.79 nM; IC50 [14]: 0.99 nM; IC50 [27]: 6.27 nM; IC50 [18]: 0.759 nM |
